{
  "source": "paper PMC7113243",
  "target": "GST-tagged ID5 (human) (UniProt Q92793)",
  "test": "BLI; GST-tagged ID5 immobilised on the biosensors; IQGAP1-F 0.1 to 19 uM, twelve concentrations; association and dissociation 60 s each; RT; double referenced against buffer and GST; steady state fitted 1:1",
  "data": [
    {"substance": "IQGAP1-F, His-tagged IQGAP1 construct (residues 286-592 of IQGAP1) (from UniProt P46940 286-592) (domain or fragment)", "values": [
      {"measurement": "Kd", "value": 400, "unit": "nM"}
    ]}
  ]
}
